Data from the supplement of paper PMC12764529.
± gives the half width of the 95% confidence interval.

Key:
[1] = folding stability dG unfold (combined trypsin and chymotrypsin); higher = more stable
In short: (§1)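 How resistant each design was to proteolysis was captured as K50, inferred by Bayesian fitting of sequencing counts. Unfolding free energy was then derived relative to a sequence-predicted unfolded-state K50 and a shared folded-state K50, per protease or combined. Digestion used trypsin and chymotrypsin at 11 threefold-diluted concentrations plus a no-protease condition, on mini-proteins under 80 residues without cysteine in a PA-tagged cDNA display construct. Designs were kept only when AlphaFold2 dimer inter-PAE was above 15.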

[2] = folding stability dG unfold from trypsin proteolysis; higher = more stable
In short: as §1

[3] = folding stability dG unfold from chymotrypsin proteolysis; higher = more stable
In short: as §1

Row | Sequence | folding stability dG unfold [1] [kcal/mol] | folding stability dG unfold [2] [kcal/mol] | folding stability dG unfold [3] [kcal/mol]
1 | SAGGSAGGMVIEGRIKIVSPDGGEKEIPVVLFIPESFPDANLEELAEAIAKEILPPGYKADFEGSAGGSAGG [r6_821_TrMRF] | 0.879 ± 0.17 | 0.601 ± 0.065 | 1 ± 0.023
2 | SAGGSAGGMVIKIITNAPSLEEAEEIAKRVAAELRERFGGPDVEIVLDVEVIPLPPVPTEDGKPSAGGSAGG [r6_182_TrMRF] | 1.82 ± 0.092 | 1.38 ± 0.053 | 1.97 ± 0.16
3 | SAGGSAGGMVISLPNNYKIKLGITDAEFDEVKVYTGPNGPKKLVSGANIKLKIGISIYKSNDNSSAGGSAGG [r6_585_TrMRF] | 1.4 ± 0.17 | 1.24 ± 0.036 | 1.43 ± 0.19
4 | SAGGSAGGMVKVSSDPATGKVYVTYPGADPEAVAEKVKKEYGAKKIKVEKDPNKDVTTITITVESAGGSAGG [r6_662_JUSTAS] | -0.0511 ± 0.19 | -1.01 ± 0.45 | 0.271 ± 0.14
5 | SAGGSAGGMVLRITLPNGEVIEIPLEELGLSEEERKRRLAELLAEELRKLFPGKEIKVEVVELPSAGGSAGG [r6_164_TrROS_Hall] | 3.83 ± 0.14 | 3.54 ± 0.08 | 4 ± 0.057
6 | SAGGSAGGMVRFDPAGGRLFLDGVPVELSEVLSVESLEEEGRVRVEALLVDGSRLEFEIPKEALSAGGSAGG [r6_682_JUSTAS] | 2.13 ± 0.029 | 1.73 ± 0.036 | 2.323 ± 0.021
7 | SAGGSAGGMVTIASITFEEDPEGGITVTVYLPSNGKTITVPVPADTPEAEARARAEAAARAYAASAGGSAGG [r6_628_JUSTAS] | 1.28 ± 0.15 | 0.894 ± 0.028 | 1.49 ± 0.098
8 | SAGGSAGGMVTSSVSALPDGSYRLTITYPDGTVLTFEFDSEEEVAALLAELAEALPADAAVPLASAGGSAGG [r6_464_JUSTAS] | 1.71 ± 0.065 | 1.64 ± 0.059 | 1.65 ± 0.046
9 | SAGGSAGGMVVERKDMDPEEAVEDTKKRIKEETGWEVTEITVTEFPEEPRLVVTIKVKKPPEKSSAGGSAGG [r6_462_JUSTAS] | 0.408 ± 0.098 | -0.287 ± 0.11 | 0.71 ± 0.016
10 | SAGGSAGGMVVRVTLPDGTVVTFEFESEEEFRKEFAASLGLAPDEIPEERIVSVERLSPEEYRSSAGGSAGG [r6_588_JUSTAS] | 1.59 ± 0.086 | 1.26 ± 0.039 | 1.64 ± 0.11
11 | SAGGSAGGMYKVTITVTDPATGKTVATETLTLESEEEAKEYVEAVKKELPSSLTVSATITKVPESAGGSAGG [r6_690_JUSTAS] | 4.58 ± 0.12 | 4.77 ± 0.46 | 4.41 ± 0.072
12 | SAGGSAGGMYTKTYNVPPDWKVTATATAPGGATVTDSSAPNGNFTLTFPASLADATTFTVTVTPSAGGSAGG [r6_237_JUSTAS] | 0.285 ± 0.14 | -0.869 ± 0.47 | 0.641 ± 0.13
13 | SAGGSAGGNEIAEKLKKKYPNIKIKSVKINPKEGKIEIDLGFPKDAKPETIKKIEKEIEELAKKSAGGSAGG [r6_97_TrMRF] | 0.646 ± 0.34 | 0.578 ± 0.056 | 0.442 ± 0.14
14 | SAGGSAGGNGPPDIKIKIEILEVHPGHRDPDGKYYFRVRVEIEYPNKPVKVDFPMPADDAKDLISAGGSAGG [r6_724_TrROS] | 3.66 ± 0.15 | 2.93 ± 0.11 | 4.2 ± 0.092
15 | SAGGSAGGNLTLPPDNIKRIWHVGDGHWLIKMDDNVLMINPGNGKIQTVKKEDADKLPPGDPFFSAGGSAGG [r6_890_TrROS] | 0.0115 ± 0.15 | -0.473 ± 0.2 | 0.0704 ± 0.19
16 | SAGGSAGGNPDLVITFPDGVKITVHPDGTITITRFIPGRDVPVGTRTITVPAPDGIPLEELLKYSAGGSAGG [r6_572_TrMRF] | 1.13 ± 0.13 | 0.887 ± 0.062 | 1.2 ± 0.059
17 | SAGGSAGGNPVRYRVTITVTSPTGGSPVIELELDDPAELAEVEALAAELAAAPVTTTVTVEPIGSAGGSAGG [r6_743_JUSTAS] | 0.807 ± 0.072 | 1.02 ± 0.049 | 0.584 ± 0.14
18 | SAGGSAGGNVLIPKSKLEEFLKNIPFEVLVLNPENPRLEIARVEADDIFVDDDYALILLTVSNDSAGGSAGG [r6_753_TrMRF] | 0.742 ± 0.12 | 1 ± 0.032 | 0.221 ± 0.18

Row | Sequence | folding stability dG unfold [1] [kcal/mol] | folding stability dG unfold [2] [kcal/mol] | folding stability dG unfold [3] [kcal/mol]
19 | SAGGSAGGPEIKVLEVRKLPDGSFEFIVEVPPGDAEKIKSGTVVKIKFGDKEYDVTVEVIPTEGSAGGSAGG [r6_372_TrMRF] | 2.24 ± 0.045 | 1.73 ± 0.038 | 2.52 ± 0.051
20 | SAGGSAGGPFVLKFPDPKNMNKLQEAASDHGMNMNRNPEKGTHVINFGGNMLDELQELPGIEIVSAGGSAGG [r6_726_TrROS] | -0.769 ± 0.24 | -1.05 ± 0.15 | -1.1 ± 0.61
21 | SAGGSAGGPIDLDDIKIEEIEHERNPNGMMYHEVTIRFPGGKIPVWFHPNMSLDNAVDMLRAFISAGGSAGG [r6_233_TrROS] | 1.19 ± 0.11 | 1.4 ± 0.092 | 0.814 ± 0.11
22 | SAGGSAGGPKKIKITNIEYPNGYWRVKISLPNGKEVEYPMDSPDDALDWAEDDGIKEVEIEKYNSAGGSAGG [r6_601_TrROS] | 0.159 ± 0.18 | -0.429 ± 0.49 | 0.358 ± 0.28
23 | SAGGSAGGPLVLRIETPEDKVLVLVLPEEAEKLPPKELAEIAAKEFAALPGVKEVKVEIAPLPLSAGGSAGG [r6_710_TrMRF] | 1.03 ± 0.12 | 0.885 ± 0.058 | 1.11 ± 0.15
24 | SAGGSAGGPLYRVLILLKKPNGEPLLLPLVAEDPEKALELAERLRKEYEEKGYELVAVEIYEFPSAGGSAGG [r6_869_TrMRF] | 5.22 ± 0.22 | 4.37 ± 0.22 | 5.26 ± 0.13
25 | SAGGSAGGPMSAEELARFLANEFHKKHGMPPGHRVKIPVKWRDPEDGNEQEVTIEIPIRMPKGDSAGGSAGG [r6_799_TrROS] | 1.2 ± 0.16 | 0.32 ± 0.17 | 1.4 ± 0.083
26 | SAGGSAGGPNIRIIIKPDPENGTLKIWFVHPEPGRIQKYEFNMNGKWKIKEPVGPMKPGDPGLLSAGGSAGG [r6_149_TrROS] | 1.33 ± 0.34 | 0.668 ± 0.16 | 1.52 ± 0.33
27 | SAGGSAGGPPDIVTLPIWIGGLKVEIMVYPDGSVTIMFRFPDWYYMITFPLKNGKIEIEWVPLKSAGGSAGG [r6_555_TrROS] | 3.35 ± 0.22 | 3.16 ± 0.11 | 3.54 ± 0.1
28 | SAGGSAGGPSPNQPERQQVQVEAKIRFPDPNGKEWTIEITAYGSVGDARDAARSLAREIKNGKISAGGSAGG [r6_944_TrROS] | -0.484 ± 0.16 | -0.494 ± 0.17 | -0.782 ± 0.49
29 | SAGGSAGGPSYTIQFPYPPGMPPWRLQKLLEEAGYPPPEIEYNPKNGSHWITFSPEVRDAFKELSAGGSAGG [r6_307_TrROS] | 0.676 ± 0.21 | 0.476 ± 0.1 | 0.845 ± 0.17
30 | SAGGSAGGPVITFPWNDIPELLERARENGDPEYYIRVSPDDPGNFTIMPPEEAEENGMPVIPLDSAGGSAGG [r6_710_TrROS] | -0.668 ± 0.33 | -0.976 ± 0.45 | -0.656 ± 0.46
31 | SAGGSAGGPVSVDPSTGTVTITVPPGTATPVVEAIAAALGLPVETATTPLPDGTTTVTVTIPAASAGGSAGG [r6_419_JUSTAS] | 0.844 ± 0.22 | 0.733 ± 0.1 | 0.816 ± 0.1
32 | SAGGSAGGRFTVQFRVPGTLEEAREKAEEIAENLPPNFKDVEVDIEPHPKNGWIRVEVQIKMKKSAGGSAGG [r6_164_TrROS] | 1.01 ± 0.31 | 0.991 ± 0.16 | 1.07 ± 0.16
33 | SAGGSAGGRVVLSAEEIEKLKPGDEIELLVRDKETGEWRRVKARVVRIERVGDRVYVEIEIEPESAGGSAGG [r6_753_TrROS_Hall] | 4.29 ± 0.12 | 4.53 ± 0.25 | 4.19 ± 0.057
34 | SAGGSAGGRWYIMIEIRFPGNGRQFSFMIPIPPGDEVDIKLDELAEWFGFPNVKVDIQVMPLEKSAGGSAGG [r6_722_TrROS] | 4.45 ± 0.18 | 3.41 ± 0.3 | 4.75 ± 0.12
35 | SAGGSAGGSAAEVEVETLELEIDGVKITVTRVRNADGELLYFARIEVRPAPPPPPVSLEDLSAGGSAGGSAG [r3_68_TrROS_Hall] | 3.23 ± 0.12 | 3.02 ± 0.093 | 3.25 ± 0.074
36 | SAGGSAGGSAAKVISVNPETGEVVVEYPDGSVGYFKVKGGVVEEVRSSPVLPVPEDDPLFTSAGGSAGGSAG [r3_406_TrMRF] | 1.15 ± 0.077 | 1.05 ± 0.032 | 1.2 ± 0.088
